The assay has as its target T1, AlexaFluor488-labeled human PLCβ3-Δ892 R872A L876A L879A triple mutant (human, UniProt Q01970 10-891, R872A | L876A | L879A).
T1 sequence: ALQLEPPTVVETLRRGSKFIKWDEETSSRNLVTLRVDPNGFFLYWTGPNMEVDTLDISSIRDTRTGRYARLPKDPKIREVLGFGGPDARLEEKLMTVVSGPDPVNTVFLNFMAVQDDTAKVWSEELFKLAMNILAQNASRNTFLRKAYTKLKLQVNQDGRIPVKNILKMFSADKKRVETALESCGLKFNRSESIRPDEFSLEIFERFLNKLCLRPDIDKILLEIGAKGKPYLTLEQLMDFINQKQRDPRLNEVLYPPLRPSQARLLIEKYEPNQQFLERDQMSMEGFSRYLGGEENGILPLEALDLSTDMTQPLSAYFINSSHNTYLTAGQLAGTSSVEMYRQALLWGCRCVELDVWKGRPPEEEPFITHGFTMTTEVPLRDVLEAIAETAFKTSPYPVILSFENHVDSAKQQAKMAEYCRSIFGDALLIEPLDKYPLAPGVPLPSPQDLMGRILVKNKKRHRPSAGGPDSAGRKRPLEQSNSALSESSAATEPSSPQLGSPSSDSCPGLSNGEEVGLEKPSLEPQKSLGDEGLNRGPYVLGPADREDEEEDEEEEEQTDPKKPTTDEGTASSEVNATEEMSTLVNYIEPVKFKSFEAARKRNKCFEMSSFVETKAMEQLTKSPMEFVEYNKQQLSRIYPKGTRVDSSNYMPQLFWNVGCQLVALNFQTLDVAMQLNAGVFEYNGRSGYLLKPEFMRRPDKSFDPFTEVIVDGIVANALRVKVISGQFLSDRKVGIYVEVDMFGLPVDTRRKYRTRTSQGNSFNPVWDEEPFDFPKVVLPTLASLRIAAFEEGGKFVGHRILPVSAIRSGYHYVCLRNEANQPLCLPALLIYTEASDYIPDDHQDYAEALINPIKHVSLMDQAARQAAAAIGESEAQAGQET
The assay can be described thus: flow cytometry protein interaction assay. On the technique in general: A flow cytometer gives signals particle by particle.

B1: Gαi/q chimera (murine Gαq with its N-terminal helix replaced with that of Gαi), biotinylated, AlF4-activated (other)
chain: MGCTLSAEDKAAVERSKMIDRNLREDGEKARRELKLLLLGTGESGKSTFIKQMRIIHGSGYSDEDKRGFTKLVYQNIFTAMQAMIRAMDTLKIPYKYEHNKAHAQLVREVDVEKVSAFENPYVDAIKSLWNDPGIQECYDRRREYQLSDSTKYYLNDLDRVADPSYLPTQQDVLRVRVPTTGIIEYPFDLQSVIFRMVDVGGQRSERRKWIHCFENVTSIMFLVALSEYDQVLVESDNENRMEESKALFRTIITYPWFQNSSVILFLNKKDLLEEKIMYSHLVDYFPEYDGPQRDAQAAREFILKMFVDLNPDSDKIIYSHFTCATDTENIRFVFAAVKDTILQLNLKEYNLV
modifications: biotinylated (sites not given)
With B1, the dissociation constant (Kd) (usually a measure of binding affinity in units of concentration) is 20.5 nM.
